Assay [1] deals with T1, human MSR1 extracellular domain expressed with a N-terminal nonahistidine tag (His9-hMSR1); R&D Systems, Cat … (human, UniProt P21757 77-451).
T1 construct: extracellular domain; also called His-hMSR1; 9xHis-hMSR1; not shown: N-terminal nonahistidine tag
T1 sequence (looked up): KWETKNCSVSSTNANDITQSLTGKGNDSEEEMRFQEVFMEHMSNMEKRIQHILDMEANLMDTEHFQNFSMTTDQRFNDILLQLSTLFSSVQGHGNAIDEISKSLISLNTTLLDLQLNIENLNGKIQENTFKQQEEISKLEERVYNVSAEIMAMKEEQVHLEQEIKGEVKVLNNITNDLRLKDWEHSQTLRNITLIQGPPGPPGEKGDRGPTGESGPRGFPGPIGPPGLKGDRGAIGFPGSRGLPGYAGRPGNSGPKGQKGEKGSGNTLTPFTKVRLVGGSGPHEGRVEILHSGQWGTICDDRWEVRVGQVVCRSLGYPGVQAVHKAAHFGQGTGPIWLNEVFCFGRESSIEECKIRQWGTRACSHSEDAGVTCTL
The assay can be described thus: BLI Octet, 25 C, antibody captured. In general terms: In BLI a coated tip is dipped into the sample, and binding shifts an interference pattern.

The target in assay [2] is T2, monkey MSR1 extracellular domain expressed with a N-terminal hexahistidine-myc-myc tag (HMM-mfMSR1) (monkey (Macaca fascicularis)).
T2 chain: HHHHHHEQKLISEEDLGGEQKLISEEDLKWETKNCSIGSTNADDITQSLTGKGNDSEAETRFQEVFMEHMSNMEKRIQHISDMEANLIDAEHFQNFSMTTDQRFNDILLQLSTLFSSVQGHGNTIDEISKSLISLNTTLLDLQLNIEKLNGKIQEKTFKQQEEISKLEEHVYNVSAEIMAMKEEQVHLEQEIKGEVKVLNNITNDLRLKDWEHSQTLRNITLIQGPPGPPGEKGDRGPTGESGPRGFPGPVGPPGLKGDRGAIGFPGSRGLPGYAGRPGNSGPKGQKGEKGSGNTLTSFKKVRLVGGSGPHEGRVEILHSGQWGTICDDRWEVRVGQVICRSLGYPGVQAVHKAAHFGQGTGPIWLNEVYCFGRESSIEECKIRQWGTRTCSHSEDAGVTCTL
The assay is described as follows: BLI Octet, 25 C, antibody captured.
Experimental: (§1) Binding affinities and kinetic constants of human anti-MSR1 antibodies for different MSR1 reagents were determined using a real time, label-free bio-layer interferometry assay on an OCTET® HTX biosensor platform (Pall FortéBio Corp., Menlo Park, Calif.). The experiment was performed at 25° C. in 10 mM HEPES, 150 mM NaCl, 3 mM EDTA, 0.05% v/v Surfactant Tween-20, and 1 mg/mL BSA, pH7.4 (HBS-EBT) buffer with the plate shaking at the speed of 1000 rpm. […] The anti-MSR1 monoclonal antibodies were captured by dipping either anti-human Fc (AHC) or anti-mouse Fc (AMC) Octet biosensors in wells containing 5 pg/mL or 10 pg/mL of anti-MSR1 monoclonal antibody for 45-90 seconds. […] The binding of different MSR1 reagents to the captured anti-MSR1 monoclonal antibody was measured for 4 minutes and the dissociation of monoclonal antibody bound MSR1 reagent was monitored for 8-10 minutes in HBS-EBT buffer.
(§2) The association rate (kₐ) and dissociation rate (kd) were determined by fitting the real-time binding sensorgrams to a 1:1 binding model with mass transport limitation using Scrubber 2.0c curve-fitting software. Binding dissociation equilibrium constant (KD) and dissociative half-life (t½) were calculated from the kinetic rates as:

The target in assay [3] is T3, mouse MSR1 extracellular domain expressed with a N-terminal nonahistidine tag (His9-mMSR1); R&D Systems, Cat … (mouse, UniProt P30204 79-458).
T3 construct: extracellular domain; not shown: N-terminal nonahistidine tag
T3 sequence (looked up): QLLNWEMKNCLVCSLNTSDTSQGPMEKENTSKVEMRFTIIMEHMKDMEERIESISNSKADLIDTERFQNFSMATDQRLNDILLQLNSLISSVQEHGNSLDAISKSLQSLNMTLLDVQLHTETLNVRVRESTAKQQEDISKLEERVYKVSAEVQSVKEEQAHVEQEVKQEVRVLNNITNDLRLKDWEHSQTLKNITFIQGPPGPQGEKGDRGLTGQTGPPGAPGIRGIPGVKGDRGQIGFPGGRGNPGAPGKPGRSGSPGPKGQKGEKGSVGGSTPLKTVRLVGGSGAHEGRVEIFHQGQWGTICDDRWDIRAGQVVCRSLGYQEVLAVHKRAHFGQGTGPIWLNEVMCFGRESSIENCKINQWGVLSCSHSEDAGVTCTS
The assay can be described thus: BLI Octet, 25 C, antibody captured.

The target in assay [4] is T2, monkey MSR1 extracellular domain …. The assay is described as follows: SPR Biacore, 25 C, antibody captured.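 Also: rates from 1:1 fit with mass transport limitation of real-time sensorgrams, HEPES-buffered saline with EDTA and Tween-20 at pH 7.4, KD and t½ derived from the kinetic rates.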 For orientation: In SPR one partner is held on a chip, and binding of the other changes the refractive index at the surface.
Experimental: (§3) Binding affinities and kinetic constants of human anti-MSR1 antibodies for different MSR1 reagents were determined by real-time surface plasmon resonance (Biacore 4000). All binding studies were performed in 10 mM HEPES, 150 mM NaCl, 3 mM EDTA, and 0.05% v/v Surfactant Tween-20, pH 7.4 (HBS-ET) running buffer at 25° C. and 37° C.
as §2
Assay [5] addresses T1, human MSR1 extracellular domain …. The assay is described as follows: SPR Biacore, 37 C, antibody captured.
Experimental: as §3, §2
Assay [6] has as its target T2, monkey MSR1 extracellular domain …. The assay can be described thus: SPR Biacore, 37 C, antibody captured.
Experimental: as §3, §2
In assay [7] the target is T1, human MSR1 extracellular domain …. The assay is described as follows: SPR Biacore, 25 C, antibody captured; kd fixed, no dissociation seen.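 Also: rates from 1:1 fit with mass transport limitation of real-time sensorgrams, HEPES-buffered saline with EDTA and Tween-20 at pH 7.4, KD and t½ derived from the kinetic rates.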
Experimental: as §3, §2
Assay [8] has as its target T3, mouse MSR1 extracellular domain …. The assay can be described thus: BLI Octet, 25 C, antibody captured; kd fixed, no dissociation seen.
Experimental: as §1, §2
The target in assay [9] is T1, human MSR1 extracellular domain …. The assay is described as follows: SPR Biacore, 37 C, antibody captured; kd fixed, no dissociation seen.
Experimental: as §3, §2
Assay [10] has as its target T2, monkey MSR1 extracellular domain …. The description is as above.
Experimental: as §3, §2
Assay [11] shares this target. The assay can be described thus: SPR Biacore, 25 C, antibody captured; kd fixed, no dissociation seen.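 Also: rates from 1:1 fit with mass transport limitation of real-time sensorgrams, HEPES-buffered saline with EDTA and Tween-20 at pH 7.4, KD and t½ derived from the kinetic rates.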
Experimental: as §3, §2

Changes are numbered by the printed parent chain. Names may count otherwise.

B1: H2aM21229N (antibody, V domains shown)
VH: EVQLVESGGGLVKPGGSLRLSCAASGFTFSRYSMNWVRQAPGKGLEWVSSISSSSSYIYYGDTVKGRFTISRDNAKKSLYLQMNSLRAEDTAVYYCVRDRGQLVLYFDYWGQGTLVTVSS
VL: DIQMTQSPASLSTSIRDRVTITCRASLSISSFLNWFQQRPGKAPKLLIYVASNLQSGVPSRFSDSGSGTDFTLTISSLQPEDFATYYCQQNYSTPPITFGQGTRLEIK
notes: Human variable domains with mouse IgG2a Fc
As to B1, in assay [1], binding was characterised by a dissociation constant (Kd) of 0.7 nM; the koff (as a rule, the rate constant with which the complex falls apart) turned out to be 0.00021 s⁻¹; the kon – broadly, a measure of how fast the partners come together – amounted to 300000 M⁻¹ s⁻¹; the t½ (commonly how long it takes for the measured level to halve) was 0.917 h. In addition, in assay [2], binding was put at a Kd of 16.4 nM, the koff was 0.00222 s⁻¹, the kon worked out at 135000 M⁻¹ s⁻¹ and the t½ is 0.0833 h. For the same molecule, in assay [3], the binding result is “no binding (tested: 100 nM)”.

B2: H1H27754P-N297Q (antibody, V domains shown)
VH: EVQLVESGGGLVQPGGSLRLSCAASGFTFRTYAMTWVRQAPGKGLDWVSAITGDGGNTYYADSVKGRFTISRDNSKNTLYLQMNSLRAEDTAIYYCAKDQRFSFALYYFDYWGQGTLVTVSS
VL: DIQMTQSPSSVSASVGDRVTITCRASQGISSWLAWYQQKPGNAPKLLIYAAFSLQSGVPSRFSGSGSGTDFTLTISSLQPEDFATYYCQQANNFPWTFGQGTKVEIKR
notes: Human IgG1 Fc with N297Q point mutation
Turning to B2, in assay [3], the binding result is on record as “no binding (tested: 50 nM)”. Besides, in assay [4], the Kd (commonly a measure of binding affinity in units of concentration) came out at 0.075 nM, the koff was 1.76e-05 s⁻¹, the kon is 235000 M⁻¹ s⁻¹ and the t½ came out at 10.9 h. In [5], this molecule showed a Kd of 0.0381 nM, a koff of 2.53e-05 s⁻¹, a kon of 663000 M⁻¹ s⁻¹ and a t½ of 7.62 h. Besides, in [6], the Kd was determined as 0.0504 nM, the koff was 3.53e-05 s⁻¹, the on-rate (kon) amounted to 701000 M⁻¹ s⁻¹ and the t½ is 5.45 h. Moreover, in assay [7], the Kd was ≤ 0.0344 nM, the koff was ≤ 1e-05 s⁻¹, the kon was 290000 M⁻¹ s⁻¹ and the t½ came out at 19.2 h.

B3: H2aM21235N (antibody, V domains shown)
VH: EVQLVESGGGLVQPGGSLRLSCAASGFTFSDHYMDWVRQAPGKGLEWVGRTRNKANSYTTEYAASVSGRFTISRDDSKNSLYLQMNSLKTEDTAVYYCTRAGIIGTLFDYWGQGTLVTVSS
VL: DIQMTQSPSSLSASVGDRVTITCRASQIIGRYLNWFQQKPGKVPKLLIYAASSLQRGVPSRFSGSGSGTDFTLTISSLQPEDFATYYCQQSYNTPPITFGQGTRLEIKR
notes: Human variable domains with mouse IgG2a Fc; tied by the numerical identifier
As for B3, in assay [1], the Kd amounted to 0.378 nM and the t½ amounted to 4.2 h. In [2], this molecule registered a Kd of 0.612 nM and a t½ of 3.07 h. In addition, in assay [3], the binding result was “no binding (tested: 100 nM)”.

B4: H2aM21228N (antibody, V domains shown)
VH: VQLVESGGGLVQPGGSLRLSCAASGFTFSDHYMDWVRQAPGKGLEWVGRTRNKANSHTTEYAASVSGRFTISRDDSKNSLYLQMNSLKTEDTAVYYCTRAGIIGTLFDYWGQGTLVTVSS
VL: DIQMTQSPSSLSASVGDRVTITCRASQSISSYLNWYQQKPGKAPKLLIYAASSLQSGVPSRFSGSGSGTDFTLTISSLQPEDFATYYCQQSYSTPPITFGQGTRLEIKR
notes: as for B3
On to B4, for which, in [1], the affinity, expressed as Kd, was 0.954 nM; the koff amounted to 0.000116 s⁻¹; the kon stood at 122000 M⁻¹ s⁻¹; the t½ was 1.67 h. In assay [2], the affinity, expressed as Kd, was 1.45 nM; the koff came to 0.000146 s⁻¹; the kon turned out to be 100000 M⁻¹ s⁻¹; the t½ is 1.32 h. Further, in assay [3], the binding result is “no binding (tested: 100 nM)”.

B5: H1H21234N-N297Q (antibody, V domains shown)
VH: QVQLQESGPGLVKPSETLSLTCTVTGGSISRNYWSWIRQPPGKGLEWIGYIYYSGSIDYNPSLKSRVTISVDTSKNQFSLKLSSMTAADTAVYYCARDRWNWKYGMDVWGQGTTVIVSS
VL: EIVLTQSPGTLSLSPGERATLSCRASQTVRNNYLAWYHQKPGQAPRLLIYGASSRATGIPDRFSGSGSGTDFTLTISRLEPEDFTVYYCHQYGNSPWTFGQGTKMEIKR
notes: Human IgG1 Fc with N297Q point mutation (EU numbering)
Turning to B5, the Kd is 0.0466 nM in assay [4]; ≤ 1.31 nM in assay [8]; ≤ 0.0201 nM in assay [7]; 0.0127 nM in assay [9]; 0.0133 nM in [10]. The koff was 1.95e-05 s⁻¹ in [4]; ≤ 5e-05 s⁻¹ in assay [8]; ≤ 1e-05 s⁻¹ in assay [7]; ≤ 1e-05 s⁻¹ in assay [9]; ≤ 1e-05 s⁻¹ in assay [10]. The kon in assay [4] is 408000 M⁻¹ s⁻¹; in [8] it was 38200 M⁻¹ s⁻¹; in [7], 497000 M⁻¹ s⁻¹; in assay [9], 787000 M⁻¹ s⁻¹; in [10], 750000 M⁻¹ s⁻¹. Moreover, the t½ came to 9.88 h in [4]; 3.85 h in assay [8]; 19.2 h in assay [7]; 19.2 h in [9]; 19.2 h in assay [10].

B6: H1H21234N (antibody, V domains shown)
VH: B5 VH
VL: B5 VL
notes: Original human IgG1 Fc (no N297 mutation)
Take B6: the Kd in assay [8] was ≤ 1.09 nM; in [7], ≤ 0.0166 nM; in assay [11], ≤ 0.0298 nM; in assay [9], 0.0148 nM; in [10] it was 0.0138 nM. Moreover, the koff is ≤ 5e-05 s⁻¹ in [8]; ≤ 1e-05 s⁻¹ in assay [7]; ≤ 1e-05 s⁻¹ in assay [11]; ≤ 1e-05 s⁻¹ in assay [9]; ≤ 1e-05 s⁻¹ in assay [10]. For the same molecule, the kon in assay [8] is 46000 M⁻¹ s⁻¹; in assay [7] it was 604000 M⁻¹ s⁻¹; in assay [11], 336000 M⁻¹ s⁻¹; in [9], 676000 M⁻¹ s⁻¹; in assay [10] it was 726000 M⁻¹ s⁻¹. Besides, the t½ was determined as 3.85 h in assay [8]; 19.2 h in assay [7]; 19.2 h in assay [11]; 19.2 h in [9]; 19.2 h in [10].

B7: H2aM25695N (antibody, V domains shown)
VH: B5 VH with D58N, T73M, S83N, M85V
VL: B5 VL with N32S, T85A, H90Q, N94S, P96Y
notes: as for B3
For B7, in assay [1], binding was characterised by a dissociation constant (Kd) of 1.46 nM, the koff is 0.000527 s⁻¹, the kon is 360000 M⁻¹ s⁻¹ and the t½ was 0.367 h. Besides, in assay [2], the affinity, expressed as Kd, was 1.83 nM; the koff amounted to 0.000571 s⁻¹; the kon amounted to 312000 M⁻¹ s⁻¹; the t½ came out at 0.333 h. For the same molecule, the binding result in assay [3] was “no binding (tested: 100 nM)”.

These data come from US20190367631A1 (Regeneron, published 2019).
